B1: 3'-5' exoribonuclease 1, residues 65 to 114; numbered along this chain, Q8IV48 (parent)
chain: VYKEIAITNGCINRMSKEELRAKLSEFKLETRGVKDVLKKRLKNYYKKQK

Variants of: B1
Test: abundance fitness (aPCA) (normalised: wild type 0, dead -1); higher = more abundant; growth selection in yeast, the domain comes from the species named
Conditions: Homo sapiens

Abundance fitness, by site and new letter:
R32: C -0.459, E -0.572, G -0.394, I -0.628, S -0.318, D -0.399, Q -0.396, P -0.964, V -0.471, N -0.409, F -0.521, T -0.292, W -0.478, K -0.209, H -0.319, M -0.646, L -0.703, A -0.383
K48: V -0.432, C -0.323, N -0.164, I -0.611, G -0.25, F -0.51, H -0.213, A -0.187, P -0.87, L -0.264, Q -0.211, R -0.072, T -0.175, M -0.22, S -0.158, Y -0.279, D -0.329, W -0.393
G33: S -0.787, A -0.842, F -0.977, H -0.875, I -0.97, R -0.739, Y -0.931, E -0.791, N -0.991, K -0.93, Q -1.09, M -0.988, T -1.06, D -0.663, W -0.779, C -0.608
N44: A -0.021, C -0.211, P -0.767, W -0.376, T -0.086, Q -0.063, H -0.065, F -0.306, S -0.087, V -0.318, E -0.193, M -0.164, L -0.168, G -0.158, Y -0.27, K 0.05, R 0.017
E30: N -0.16, W -0.516, I -0.732, Y -0.387, T -0.566, G -0.562, K -0.401, M -0.685, H -0.689, R -0.685, Q -0.359, V -0.738, F -0.501, S -0.148, P -0.283, L -0.67
K40: H -0.576, G -0.777, L -0.608, N -0.319, D -0.741, M -0.634, V -0.669, S -0.521, F -0.992, C -0.705, Y -0.7, W -0.985, P -0.951, E -0.44, A -0.427, I -0.819, T -0.398
Q49: G -0.306, E -0.192, H -0.109, D -0.353, A -0.164, I -0.074, F -0.208, C -0.154
L42: Y -0.969, M -0.611, V -0.754, G -0.871, W -0.888, T -1.1, K -1.04, E -0.892, S -0.511, Q -0.912, C -0.925, F -0.551, N -0.918, P -0.999, H -0.907, A -0.918, D -0.961
K39: P -0.979, G -0.721, N -0.582, Y -0.917, D -0.967, V -0.196, F -0.909, R -0.114, W -1.04, Q -0.398, A -0.36, L -0.632, I -0.382, E -0.939, C -0.396, M -0.521, T -0.458, H -1.11
R41: Y -0.941, C -1.01, I -0.865, P -0.803, D -1.09, V -1.02, F -0.887, W -0.975, T -0.963, H -1.02, Q -0.992, N -0.895, S -0.641, E -1.02, K -0.914, A -0.891, M -0.803
K43: L -0.593, P -0.806, N -0.39, D -0.737, A -0.579, Y -0.723, G -0.846, E -0.712, H -0.729, I -0.448, T -0.55, F -0.755, M -0.506, R -0.366, C -0.823, Q -0.469, V -0.597
Y46: S -0.277, K -0.32, E -0.703, P -1, N -0.268, G -0.533, F 0.116, C 0.066, L 0.079, T -0.125, W -0.229, I 0.114, Q -0.166, M 0.111
K47: D -0.643, G -0.447, V -0.422, R -0.132, C -0.491, M -0.34, Q -0.325, L -0.381, F -0.572, I -0.415, N -0.155, H -0.409, W -0.608, Y -0.533, A -0.288, T -0.416
V34: M -0.582, R 0.11, N 0.039, Q -0.241, P -0.379, Y -0.244, W -0.352, G -0.213, C -0.078, D -0.293, I -0.064, K 0.079, S -0.109, F -0.245, H 0.054, A -0.177, T 0.046, L -0.213, E -0.553
Y45: A -0.383, L -0.637, T -1, G -0.891, S -0.279, Q -0.876, C -0.399, R -0.878, P -0.995, E -0.63, V -0.8, I -0.664, D -0.954, H -0.048, K -0.916, M -0.643, F -0.094, N -0.64, W -0.051
V37: L -0.544, P -1.02, S -0.136, K 0.027, H -0.695, W -0.763, Q -0.148, T 0.01, Y -0.853, N -0.321, C -0.191, D -0.25, E -0.096, A -0.037, I -0.228, F -0.562, R -0.124, G -0.639
D36: V -0.292, I -0.334, H 0, A -0.024, M -0.27, L -0.201, N 0.02, Y -0.176, G -0.244, R 0, W -0.106, P -0.17, T -0.042, K 0.044, S 0.048, E -0.379, F -0.289, Q -0.236
K35: I -0.475, W -0.815, L -0.698, Y -0.827, A -0.347, G -0.845, Q -0.767, R -0.52, T -0.314, D -0.772, P -0.797, S -0.48, H -0.709, F -0.81, C -0.58, M -0.765, V -0.262, N -0.697
T31: L -0.639, Q -0.156, Y 0.121, S -0.088, F 0.038, N -0.115, G -0.791, K -0.05, V -0.106, M -0.285, H 0.143, I -0.134, P -0.114, W -0.161, R -0.327, A -0.198
L38: M -0.338, S -0.458, F -0.668, K -0.828, W -0.629, P -0.968, T -0.993, R -0.948, N -0.95, A -0.893, D -0.376, I -0.541, H -1.02, G -1.09, E -0.933, Q -0.874, Y -1.05

— the Human Domainome abundance scans (Beltran et al. 2025)
